From paper PMC8134462, “Cross-reactive serum and memory B-cell responses to spike protein in SARS-CoV-2 and endemic coronavirus infection” (Nature Communications, 2021)

Target: T1, SARS-CoV-2 soluble S ectodomain protein (residue 1-1208), prefusion-stabilized, with T4 fibritin … (SARS-CoV-2, Wuhan-Hu-1 (MN908947), UniProt P0DTC2, K986/V987 replaced by proline residues)
T1 construct: also called SARS-CoV-2 S-protein; whole S protein
Test: BLI
Conditions: both partners purified

Binder | binding result
mAb CC9.2 (IgG) (antibody, V domains shown) VH: EVQLVESGGGLVQPGRSLRLSCVAPGFTLGGYGMHWVRQAPGKGLEWVGLISYDGSVQKYGSSVKGRFTISKDNSKNTLYLEMNSLRADDTAVYFCVKGASLGDNWGQGTLVTVSS VL: EIVMTQSPLSLPVTLGQPASISCRSSQSLVYSDGDTYMSWFHQRPGQSPRRLIYKVSNRDFGVPDRFSGSGSGTDFTLKISRVEAEDVGVYYCMQGTHWPYTFGPGTKVEIK | binds
mAb CC9.1 (antibody, V domains shown) VH: EVQLVESGGGLVQPGRSLRLSCVAPGFTLGGYGMHWVRQAPGKGLEWVGLISYDGSVQKYGSSVKGRFTISKDNSKNTLYLEMNSLRADDTAVYFCVKGASLGDNWGQGTLVTVSS VL: EIVMTQSPLSLPVTLGQPASISCRSSQSLVYSDGDTYMSWFHQRPGQSPRRLIYKVSNRDSGVPDRFSGSGSGTDFTLKISRVEAEDVGVYYCMQGTHWPYTFGPGTKVEIK | binds
second SARS-CoV-2/HCoV-HKU1 cross-reactive mAb from the CC40 donor (its name is not printed in the text) (antibody, V domains shown, also called one of the two cross-reactive mAbs from the CC40 donor) VH: EVQLVESGGGVVQPGRSLRLSCVASGFTFSNYGMHWVRQAPGKGLEWVAVMSYDGSVTYYGDSVRGRFTISRDNSKNTLYLQMSSLRTDDTGVYYCAKGQPLDDIWGLGTLVTVSS VL: EIVMTQSPLSLPVSLGQSASISCRSSQSLVHTDGITYLSWFQQRPGQSPRRLLYKVSNRDSGVPDRFSGSGSGTDFTLKISRVEAEDVGVYYCLQGTYWPWTFGQGTKVEIK | binds
